From US11685791B2, “Antibody binding specifically to N-terminal region of lysyl-tRNA synthetase exposed on cell membrane” (Zymedi Co., Ltd., priority 2017, dated 2023) come the findings set out here.

This test has as its system mouse breast cancer 4T-1 cells. As to the kind of experiment: In-vivo cancer metastasis model (lung metastasis). As for the experimental part:
Since KRS can accelerate cell migration through 67LR associated with cancer metastasis, tumor (cancer) animal models were constructed using mouse breast cancer 4T-1 cells (Korean Cell Line Bank), which are well metastasizable to the lung. Orthotopic breast cancer animal models were constructed by injecting 4×10^4 4 T1 cells into the fat pad of six 7-week old BALB/cAnCr mice (Doo Yeol Biotech).
The cancer was injected into the mammary fat pad, and after 10 days (Day 10), cancer tissues were resected from the fat pad. After one day (Day 11), N3 IgG (10 mg/kg) was administered twice a week for two weeks at intervals of 3 days (a total of four times, Days 11, 14, 18, and 21) via tail vein i.v. injection, and the same dose of control mock IgG (Thermo #31154) was also administered. One week after the completion of the entire antibody dosing schedule, that is, 28 days after cancer injection, the mice were sacrificed to take lung tissue. Upon autopsy of lung tissue, the lung was inflated by injection of a saline solution into the bronchus through a syringe, collected, and then stored in Bouin's solution (Sigma #HT10132) for 24 h. Thereafter, the metastasis nodules in each lobe of the lung were counted through a microscope.
It has been known in the foregoing literature “Dae Gyu Kim et al., (2014)” that the YH16899 compound has an effect on cancer metastasis inhibition by suppressing the interaction between 67LR and KRS. Then, the cancer metastasis inhibitory effect was compared between YH16899 and N3 IgG, the antibody of the present invention. The construction of in-vivo tumor models and the observation of lung metastasis condition were carried out by the same method as in Example <3-3>. YH16899 was orally administered at 100 mpk every day. N3 IgG was intravenously injected at difference concentrations (1 mpk, 10 mpk) through mouse tails.

B1: N3 IgG: IgG converted from N3 scFv; VH SEQ ID NO: 49, VL SEQ ID NO: 51; binds KRS N-terminal region (antibody, V domains shown)
VH: EVQLLESGGGLVQPGGSLRLSCAASGFTFSSYDMSWVRQAPGKGLEWVSAISYDNGNTYYADSVKGRFTISRDNSKNTLYLQMNSLRAEDTAVYYSARMALDFDYWGQGTLVTVSS
VL: QSVLTQPPSASGTPGQRVTISCTGSSSNIGSNYVTWYQQLPGTAPKLLIYDNSNRPSGVPDRFSGSKSGTSASLAISGLRSEDEADYYCASWDDSLSAYVFGGGTKLTVL
For the molecule B1, the lung metastasis nodules result (10 mg/kg i.v. twice a week for two weeks, vs mock IgG control) is recorded as “significantly suppressed”. For the setting “10 mg/kg i.v., control vs N3 IgG treatment group”, the “laminin receptor expression in metastasis nodule sites of lung tissue” value is given as “significantly large amount of laminin receptors were expressed in the metastasis nodule sites in control compared with the group treated with the antibody”. For the same molecule, where the note is “1 mpk and 10 mpk i.v.”, the lung nodule count entry was “significantly reduced in a dose-dependent manner”. The “cancer metastasis inhibition compared with YH16899 (100 mpk)” value (1 mpk i.v.) is “significantly inhibited cancer metastasis compared with YH16899”.
